# B1: Spindle assembly abnormal protein 5 (Caenorhabditis elegans), Q20010 (parent)
# chain: MNNYDDLPCSIYFKKPTVQEFVDQPRVFEDSEVPAFQEVLQLPQERTKPPVPSTQPIVAAVEVAKKKSCLSAPKPRKEPPSHPALRQKTVAFGKTVNVSQTVEGTSRNSKKVLASTMSAQNTTTTEEQAAENWRDAMKTELQTIRTEIQEETARRQEELNAQNLVKMQELMSNFFQKITIPKQQAIEPVEKDKENFHESPRQSRQQKPASKIASAREVIKRDGVIPPEALTIIEQRLRSDPMFRQQIDNVLADAECDANRAAYSPPPPMSEVRYGSGVNPALMRETLTVERSIRYDNGLASIDSRQWTNERRDNRAPDSYRTYEPDQPCHSLYQKGQSISYYPSEAAGKTTARNNRTGYYVEDSSDHEEDVVVNKRGQNYHEQAVPETPAERERRIREKYARRK
# partner: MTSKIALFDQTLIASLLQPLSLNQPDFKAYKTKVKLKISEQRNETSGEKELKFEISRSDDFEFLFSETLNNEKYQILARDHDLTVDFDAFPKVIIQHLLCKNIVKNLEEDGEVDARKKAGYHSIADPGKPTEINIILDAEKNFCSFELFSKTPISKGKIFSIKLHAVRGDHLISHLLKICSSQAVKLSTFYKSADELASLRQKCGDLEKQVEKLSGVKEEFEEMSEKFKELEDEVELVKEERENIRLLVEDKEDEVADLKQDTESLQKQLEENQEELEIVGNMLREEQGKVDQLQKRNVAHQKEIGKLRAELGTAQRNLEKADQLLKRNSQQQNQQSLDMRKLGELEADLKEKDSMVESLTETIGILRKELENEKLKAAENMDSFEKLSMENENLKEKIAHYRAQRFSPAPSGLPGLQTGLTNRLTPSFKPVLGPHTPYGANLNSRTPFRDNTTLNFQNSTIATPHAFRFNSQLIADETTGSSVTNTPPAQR
# Variants of: B1
# Details: with sas6_caeel sas-6, O62479
row,effect of a mutation on the interaction,Variant
1,decreasing interaction,MNNYDDLPCSIYFKKPTVQEFVDQPRVFEDSEVPAFQEVLQLPQERTKPPVPSTQPIVAAVEVAKKKSCLSAPKPRKEPPSHPALRQKTVAFGKTVNVSQTVEGTSRNSKKVLASTMSAQNTTTTEEQAAENWRDAMKTELQTIRTEIQEETARRQEELNAQNLVKMQELMSNFFQKITIPKQQAIEPVEKDKENFHESPRQSRQQKPASKIASAREVIKRDGVIPPEALTIIEQRLRSDPMFRQQIDNVLADAECDANRAAYSPPPPMSEVRYGSGVNPALMRETLTVERSIRYDNGLASIDSRQWTNERRDNRAPDSYRTYEPDQPCHSLYQKGQSISYYPSEAAGKTTARNNRTGYYVEDSSDHEEDVVVNKRGQNYHEQAVPETPAERERRAREKYARRK [I396A]

# Variants of: B1
# Details: with sas6_caeel sas-6, O62479
# Remark: another data set of the same source
row,effect of a mutation on the interaction,Variant
1,disrupting interaction,MNNYDDLPCSIYFKKPTVQEFVDQPRVFEDSEVPAFQEVLQLPQERTKPPVPSTQPIVAAVEVAKKKSCLSAPKPRKEPPSHPALRQKTVAFGKTVNVSQTVEGTSRNSKKVLASTMSAQNTTTTEEQAAENWRDAMKTELQTIRTEIQEETARRQEELNAQNLVKMQELMSNFFQKITIPKQQAIEPVEKDKENFHESPRQSRQQKPASKIASAREVIKRDGVIPPEALTIIEQRLRSDPMFRQQIDNVLADAECDANRAAYSPPPPMSEVRYGSGVNPALMRETLTVERSIRYDNGLASIDSRQWTNERRDNRAPDSYRTYEPDQPCHSLYQKGQSISYYPSEAAGKTTARNNRTGYYVEDSSDHEEDVVVNKRGQNYHEQAVPETPAERERRAREKYARRK [I396A]

# Variants of: B1
# Details: with sas6_caeel sas-6, O62479
# Remark: another data set of the same source
row,effect of a mutation on the interaction,Variant
1,decreasing interaction,MNNYDDLPCSIYFKKPTVQEFVDQPRVFEDSEVPAFQEVLQLPQERTKPPVPSTQPIVAAVEVAKKKSCLSAPKPRKEPPSHPALRQKTVAFGKTVNVSQTVEGTSRNSKKVLASTMSAQNTTTTEEQAAENWRDAMKTELQTIRTEIQEETARRQEELNAQNLVKMQELMSNFFQKITIPKQQAIEPVEKDKENFHESPRQSRQQKPASKIASAREVIKRDGVIPPEALTIIEQRLRSDPMFRQQIDNVLADAECDANRAAYSPPPPMSEVRYGSGVNPALMRETLTVERSIRYDNGLASIDSRQWTNERRDNRAPDSYRTYEPDQPCHSLYQKGQSISYYPSEAAGKTTARNNRTGYYVEDSSDHEEDVVVNKRGQNYHEQAVPETPAERERRIREKYARAK [R403A]

# Variants of: B1
# Details: with sas6_caeel sas-6, O62479
# Remark: another data set of the same source
row,effect of a mutation on the interaction,Variant
1,disrupting interaction,MNNYDDLPCSIYFKKPTVQEFVDQPRVFEDSEVPAFQEVLQLPQERTKPPVPSTQPIVAAVEVAKKKSCLSAPKPRKEPPSHPALRQKTVAFGKTVNVSQTVEGTSRNSKKVLASTMSAQNTTTTEEQAAENWRDAMKTELQTIRTEIQEETARRQEELNAQNLVKMQELMSNFFQKITIPKQQAIEPVEKDKENFHESPRQSRQQKPASKIASAREVIKRDGVIPPEALTIIEQRLRSDPMFRQQIDNVLADAECDANRAAYSPPPPMSEVRYGSGVNPALMRETLTVERSIRYDNGLASIDSRQWTNERRDNRAPDSYRTYEPDQPCHSLYQKGQSISYYPSEAAGKTTARNNRTGYYVEDSSDHEEDVVVNKRGQNYHEQAVPETPAERERRIREKYARAK [R403A]

# Variants of: B1
# Details: with sas6_caeel sas-6, O62479
# Remark: another data set of the same source
row,effect of a mutation on the interaction,Variant
1,decreasing interaction,MNNYDDLPCSIYFKKPTVQEFVDQPRVFEDSEVPAFQEVLQLPQERTKPPVPSTQPIVAAVEVAKKKSCLSAPKPRKEPPSHPALRQKTVAFGKTVNVSQTVEGTSRNSKKVLASTMSAQNTTTTEEQAAENWRDAMKTELQTIRTEIQEETARRQEELNAQNLVKMQELMSNFFQKITIPKQQAIEPVEKDKENFHESPRQSRQQKPASKIASAREVIKRDGVIPPEALTIIEQRLRSDPMFRQQIDNVLADAECDANRAAYSPPPPMSEVRYGSGVNPALMRETLTVERSIRYDNGLASIDSRQWTNERRDNRAPDSYRTYEPDQPCHSLYQKGQSISYYPSEAAGKTTARNNRTGYYVEDSSDHEEDVVVNKRGQNYHEQAVPETPAERERRICEKYARRK [R397C]

# Variants of: B1
# Details: with sas6_caeel sas-6, O62479
# Remark: another data set of the same source
row,effect of a mutation on the interaction,Variant
1,disrupting interaction,MNNYDDLPCSIYFKKPTVQEFVDQPRVFEDSEVPAFQEVLQLPQERTKPPVPSTQPIVAAVEVAKKKSCLSAPKPRKEPPSHPALRQKTVAFGKTVNVSQTVEGTSRNSKKVLASTMSAQNTTTTEEQAAENWRDAMKTELQTIRTEIQEETARRQEELNAQNLVKMQELMSNFFQKITIPKQQAIEPVEKDKENFHESPRQSRQQKPASKIASAREVIKRDGVIPPEALTIIEQRLRSDPMFRQQIDNVLADAECDANRAAYSPPPPMSEVRYGSGVNPALMRETLTVERSIRYDNGLASIDSRQWTNERRDNRAPDSYRTYEPDQPCHSLYQKGQSISYYPSEAAGKTTARNNRTGYYVEDSSDHEEDVVVNKRGQNYHEQAVPETPAERERRICEKYARRK [R397C]

# Variants of: B1
# Details: with sas6_caeel sas-6, O62479
# Remark: another data set of the same source
row,effect of a mutation on the interaction,Variant
1,decreasing interaction,MNNYDDLPCSIYFKKPTVQEFVDQPRVFEDSEVPAFQEVLQLPQERTKPPVPSTQPIVAAVEVAKKKSCLSAPKPRKEPPSHPALRQKTVAFGKTVNVSQTVEGTSRNSKKVLASTMSAQNTTTTEEQAAENWRDAMKTELQTIRTEIQEETARRQEELNAQNLVKMQELMSNFFQKITIPKQQAIEPVEKDKENFHESPRQSRQQKPASKIASAREVIKRDGVIPPEALTIIEQRLRSDPMFRQQIDNVLADAECDANRAAYSPPPPMSEVRYGSGVNPALMRETLTVERSIRYDNGLASIDSRQWTNERRDNRAPDSYRTYEPDQPCHSLYQKGQSISYYPSEAAGKTTARNNRTGYYVEDSSDHEEDVVVNKRGQNYHEQAVPETPAERERRIREKAARRK [Y400A]

# Variants of: B1
# Details: with sas6_caeel sas-6, O62479
# Remark: another data set of the same source
row,effect of a mutation on the interaction,Variant
1,disrupting interaction,MNNYDDLPCSIYFKKPTVQEFVDQPRVFEDSEVPAFQEVLQLPQERTKPPVPSTQPIVAAVEVAKKKSCLSAPKPRKEPPSHPALRQKTVAFGKTVNVSQTVEGTSRNSKKVLASTMSAQNTTTTEEQAAENWRDAMKTELQTIRTEIQEETARRQEELNAQNLVKMQELMSNFFQKITIPKQQAIEPVEKDKENFHESPRQSRQQKPASKIASAREVIKRDGVIPPEALTIIEQRLRSDPMFRQQIDNVLADAECDANRAAYSPPPPMSEVRYGSGVNPALMRETLTVERSIRYDNGLASIDSRQWTNERRDNRAPDSYRTYEPDQPCHSLYQKGQSISYYPSEAAGKTTARNNRTGYYVEDSSDHEEDVVVNKRGQNYHEQAVPETPAERERRIREKAARRK [Y400A]

# — IntAct's records for PubMed 23064147
